Data as given in publication PMC8959180.

Columns and labels:
[1] = molecular target: ReoM-His (L. monocytogenes) (UniProt P60357); test: pull-down + cross-linking; L. monocytogenes ΔclpC strains making ReoM-His were cross-linked in vivo with formaldehyde; ReoM-His purified on MagneHis magnetic beads, decrosslinked by heat; MurA in the eluates detected by Western blot and quantified by densitometry
[2] = molecular target: MurA N197D-Strep (L. monocytogenes) (UniProt Q8Y4C4); test: SPR
[3] = molecular target: MurA S262L-Strep (L. monocytogenes) (UniProt Q8Y4C4); test: SPR
[4] = molecular target: MurA-Strep (L. monocytogenes) (UniProt Q8Y4C4); test: SPR

Sequence of UniProt P60357 (P60357 whole entry): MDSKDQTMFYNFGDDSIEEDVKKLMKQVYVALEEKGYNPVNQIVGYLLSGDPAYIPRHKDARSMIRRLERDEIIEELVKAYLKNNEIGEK

Substance | percent of wt MurA level copurified [1] | Kd [2] | Kd [3] | Kd [4] | koff [4] | kon [4]
MurA N197D (chromosomal allele, strain LMPR14) (from UniProt Q8Y4C4 1-430) (enzyme) | 13% |  |  |  |  | 
MurA S262L (chromosomal allele, strain LMPR13) (from UniProt Q8Y4C4 1-430) (enzyme) | 19% |  |  |  |  | 
recombinant ReoM (from UniProt P60357 1-90) (natural protein) |  | 700 nM | 800 nM | 900 nM | 0.0004 s⁻¹ | 500 M⁻¹ s⁻¹
